Measured values taken from US20150072922A1, “RNASE 7 ANTIMICROBIAL PEPTIDES” (THE RESEARCH INSTITUTE AT NATIONWIDE CHILDREN'S HOSPITAL, priority 2012, published 2015).
“Also recorded” adds a separate entry of the source. Marks after values point to notes of the source that are not given here. No end group written: not given here. *: point of attachment. His tag = six-residue histidine tag at the N-terminus, N[C@@H](Cc1c[nH]cn1)C(=O)N[C@@H](Cc1c[nH]cn1)C(=O)N[C@@H](Cc1c[nH]cn1)C(=O)N[C@@H](Cc1c[nH]cn1)C(=O)N[C@@H](Cc1c[nH]cn1)C(=O)N[C@@H](Cc1c[nH]cn1)C(=O)*

B1: F:30-97: recombinant middle RNase 7 fragment, amino acids 30 to 97, first four beta sheets, N-terminal His tag (protein)
chain: {His tag}-INKHTKRCKDLNTFLHEPFSSVAATCQTPKIACKNGDKNCHQSHGPVSLTMCKLTSGKYPNCRYKEKR
modifications: ends and bridges not checked
notes: recombinant middle RNase 7 fragment, amino acids 30 to 97, first four beta sheets, N-terminal His tag
B2: F:1-71: recombinant N-terminal RNase 7 fragment, amino acids 1 to 71 (SEQ ID NO: 3), N-terminal His tag (protein, listed as Homo sapiens)
chain: KPKGMTSSQWFKIQHMQPSPQACNSAMKNINKHTKRCKDLNTFLHEPFSSVAATCQTPKIACKNGDKNCHQ
modifications: N-terminal His tag

Assays:
Escherichia coli (UTI89) [1] = test: Antimicrobial kill (microdilution) assay, MIC/MBC by CFU count; assay type: cell-based; conditions: for MIC/MBC fold higher than full-length protein, E. coli: compared to full-length RNase 7; for E. coli MIC: lowest concentration that inhibits the growth of 90% of the inoculation; for E. coli MIC / E. coli MBC: 3 hours, 0.1×PBS; for E. coli MBC: minimum bactericidal concentration; for antimicrobial activity against E. coli (in words): MIC/MBC based, mostly compared to full-length RNase 7
Experimental: (§1) The antimicrobial activity of RNase 7 and its fragments was estimated using a microdilution assay. Briefly, test bacteria (10^5) were incubated with several concentrations of RNase 7 and each fragment in 50 μl 0.1×PBS buffer for 3 hours in a 37° C. incubator. Each reaction was plated on the appropriate medium and grew overnight at 37° C. The antimicrobial activity was determined by the number of colony-forming units (CFUs) the following day. The minimum inhibition concentration (MIC) is defined as the lowest concentration that inhibits the growth of 90% of the inoculation and the minimum bactericidal concentration (MB C) is defined as the lowest concentration at which less than 99.99% of the initial inoculum is viable.
(§2) Antimicrobial activities of the recombinant peptides were estimated with a microdilution assay. Briefly, the test bacteria (10^4 CFUs) were incubated with various concentrations of RNase 7 and each fragment in 50 ul 0.1×PBS buffer for 3 hours at 37° C. After incubation on Agar plates overnight at 37° C., the number of colony-forming units (CFUs) at each peptide concentration was determined. Using untreated bacterial aliquots as baseline, the minimum inhibition concentration (MIC) was defined as the lowest concentration that inhibits the growth of 90% of the inoculation, and the minimum bactericidal concentration (MBC) was defined as the lowest concentration at which less than 99.99% of the initial inoculum is viable.

[2] = tested on: Staphylococcus saprophyticus (ATCC 15305); test: as above; assay type: cell-based; conditions: for MIC/MBC fold higher than full-length protein, S. saprophyticus: compared to full-length RNase 7; for S. saprophyticus MIC: lowest concentration that inhibits the growth of 90% of the inoculation; for S. saprophyticus MIC / S. saprophyticus MBC: 3 hours, 0.1×PBS; for S. saprophyticus MBC: minimum bactericidal concentration
Experimental: as §1, §2

[3] = tested on: Proteus mirabilis (ATCC 7002); test: as above; assay type: cell-based; conditions: 3 hours, 0.1×PBS; for P. mirabilis MIC: lowest concentration that inhibits the growth of 90% of the inoculation; for P. mirabilis MBC: minimum bactericidal concentration
Experimental: Uropathogenic Escherichia coli (UTI89) was grown in Luria broth (LB) medium and plated on LB-agar. Uropathogenic Staphylococcus saprophyticus (ATCC 15305) was grown in LB and plated on Trypticase Soy Agar with 5% sheep blood (Fisher Scientific, Pittsburgh, Pa., USA). Uropathogenic Proteus mirabilis (ATCC 7002) was grown in LB and plated on MacConkey II Agar (Fisher Scientific, Pittsburgh, Pa., USA). These organisms were chosen as the primary organisms that account for a majority of Gram-negative and Gram-positive urinary tract infections (UTI). Anti-RNase 7 antibody was generated in rabbit with recombinant human RNase 7 (Biomatik, Wilmington, Del., USA)
as §2

Escherichia coli (UTI89) [4] = test: SYTOX Green bacterial cell death / membrane permeabilization assay; assay type: cell-based; conditions: 3 hours, FIG. 1, compared to full-length
Experimental: (§3) Assays of the permeabilization of bacterial membrane were performed with SYTOX green nucleic acid stain (Invitrogen™). The overnight cultures of bacteria were centrifuged at 5000 rpm for 5 min, the pellets were then washed with water and resuspended in water with an OD=0.5. 90 μl of each bacteria were then incubated with 10 μl of peptides with different concentrations for 3 hours at 37° C. in a 96-well plate. 100 μl of 2 μM SYTOX Green (Invitrogen™) were then added to each well and incubated in dark for 15 min. SYTOX green penetrates cells with compromised membranes not the membranes of live cells. The increase of fluorescence was measured using […] filters for excitation and emission wavelengths, respectively. Bacteria alone and bacteria treated with 70% ethanol were used as controls and the fluorescence from each was recorded as Fmin and Fmax. The percentage of cell death at each concentration for each fragment was calculated as below: death %=(F−Fmin)/(Finax−Fmin)*100%
(§4) To confirm the accuracy of our MIC/MBC data, cell death assays using SYTOX Green (Invitrogen), which selectivity labels nucleic acids of cells with compromised membranes of dead/dying cells were performed. Overnight cultures of bacteria were centrifuged at 5000 rpm for 5 minutes. Pellets were then washed with PBS (pH 7.4) and resuspended in PBS to an OD600 of 0.5 for Escherichia coli (UTI89) and OD600 of 0.8 for Staphylococcus saprophyticus. Per manufacturerer's instructions, 90 μl of each bacteria strain were incubated with 100 μl of 2 uM SYTOX Green for 15 minutes. Ten microliters of peptides at various concentrations were added for 3 hours at 37° C. in a 96-well plate. Compromised bacterial membranes of dead/dying cells will be labeled while lives cells are not labeled as noted by Invitrogen. Fluorescence was measured using 485 and 520-nm filters for excitation and emission wavelengths, respectively. Untreated bacteria were used as a 100% live control, and fluorescence was noted as Fmin. To elicit complete killing, bacteria were treated with 70% ethanol for 1 hour. This experimental group's fluorescence was noted as Fmax. The percentage of cell death at each concentration for each fragment was calculated as (Ffragment−Fmin)/(Fmax−Fmin)×100%.

[5] = tested on: Staphylococcus saprophyticus; test: as above; assay type: cell-based; conditions: 3 hours, FIG. 2, compared to full-length
Experimental: as §3, §4

uropathogenic E. coli = test: RNase7 antibacterial activity, MIC on strains isolated from positive urine cultures; assay type: cell-based, Escherichia coli; conditions: uropathogenic E. coli isolated from urine cultures (N=3)
From the text: Laboratory bacterial strains from the American Type Culture Collection (ATCC, Manassas, Va.) and strains isolated from positive urine cultures were obtained from the Microbiology Laboratory at Nationwide Children's Hospital.

Molecule | MIC/MBC fold higher than full-length protein, E. coli (Escherichia coli (UTI89) [1]) | E. coli MIC (Escherichia coli (UTI89) [1]) | E. coli MBC (Escherichia coli (UTI89) [1]) | MIC/MBC fold higher than full-length protein, S. saprophyticus [2] | S. saprophyticus MIC [2] | S. saprophyticus MBC [2] | P. mirabilis MIC [3] | P. mirabilis MBC [3] | membrane permeabilization and death, E. coli (in words) (Escherichia coli (UTI89) [4]) | membrane permeabilization and death, S. saprophyticus (in words) [5] | MBC against E. coli (Escherichia coli (UTI89) [1]) | MIC against E. coli (Escherichia coli (UTI89) [1]) | antimicrobial activity against E. coli (in words) (Escherichia coli (UTI89) [1]) | antimicrobial activity against E. coli (in words) (Escherichia coli (UTI89) [1]; listed as 1-71) | antimicrobial activity against S. saprophyticus (in words) ([2]; MIC/MBC based, mostly compared to full-length RNase 7) | mean inhibitory concentration (MIC) (uropathogenic E. coli)
F:46-97: recombinant middle RNase 7 fragment, amino acids 46 to 97, beta sheets 2-4, N-terminal His tag ({His tag}-EPFSSVAATCQTPKIACKNGDKNCHQSHGPVSLTMCKLTSGKYPNCRYKEKR; ends and bridges not checked) | two-fold higher | 0.88 µM | 1.75 µM | two-fold higher | 0.44 µM | 1.75 µM | 3.5 µM | >3.5** uM | enhanced permeabilization and death compared to the full-length protein; also recorded: potent membrane penetrating activity | no activity compared to full length protein; also recorded: negligible activity against S. saprophyticus | – | – | – | – | – | –
B1 | two-fold higher | 0.44 µM | 0.88 µM | two-fold higher | 0.44 µM | 1.75* uM | >3.5** uM | >3.5** uM | less activity when compared with full-length RNase 7 | less activity when compared with full-length RNase 7 | – | – | – | – | – | –
B2 | seven-fold higher | 1.93** uM | 3.86 µM | – | 0.23 µM | >0.92* uM | .44 µM | .88 µM | lower permeability against E. coli | shows permeability against S. Saprophyticus | 3.86 µM | 1.93 µM | lower activity against E. coli; also recorded: markedly reduced activity against E. coli | least activity; also recorded: significantly decreased activity | shows antimicrobial activity against S. saprophyticus; also recorded: same activity to S. saprophyticus as full length protein | 0.63 µM
